The values that follow come from patent US20150023959A1 (BIOVERATIV THERAPEUTICS, published 2015).

This assay concerns the target T1, FVIII-155/VWF-031 heterodimer.
T1 construct: The two chains are held together by disulfide bonds between the Fc regions; also called FVIII155/VWF31 heterodimer; FVIII155:VWF31
Description: Octet BLI, heterodimer immobilized on protein G sensor, FVIII in solution. How it is done:
For the assay, full length VWF was captured by using APS sensor. The binding of FVIIIFc and FVIII to the full-length VWF is shown at the lower left panel. The lack of binding of FVIIIY1680 (a mutant having no affinity for VWF) and FVIII:VWF heterodimer (FVIII155/VWF031) is shown at the lower right panel. […] The binding of the constructs to FVIII was measured.
The same experiment was performed in reverse orientation to determine if the D′D3 portion in the FVIII-VWF heterodimer can interact with other FVIII molecules not covalently attached to D′D3. […] Protein G alone with FVIII was used as control. These binding experiments confirmed that D′D3 in heterodimer can interact with only one FVIII molecule which is covalently attached to it and prevent FVIII from interacting with full length wild type VWF molecules.

T1 sequence (chain, as listed by the source): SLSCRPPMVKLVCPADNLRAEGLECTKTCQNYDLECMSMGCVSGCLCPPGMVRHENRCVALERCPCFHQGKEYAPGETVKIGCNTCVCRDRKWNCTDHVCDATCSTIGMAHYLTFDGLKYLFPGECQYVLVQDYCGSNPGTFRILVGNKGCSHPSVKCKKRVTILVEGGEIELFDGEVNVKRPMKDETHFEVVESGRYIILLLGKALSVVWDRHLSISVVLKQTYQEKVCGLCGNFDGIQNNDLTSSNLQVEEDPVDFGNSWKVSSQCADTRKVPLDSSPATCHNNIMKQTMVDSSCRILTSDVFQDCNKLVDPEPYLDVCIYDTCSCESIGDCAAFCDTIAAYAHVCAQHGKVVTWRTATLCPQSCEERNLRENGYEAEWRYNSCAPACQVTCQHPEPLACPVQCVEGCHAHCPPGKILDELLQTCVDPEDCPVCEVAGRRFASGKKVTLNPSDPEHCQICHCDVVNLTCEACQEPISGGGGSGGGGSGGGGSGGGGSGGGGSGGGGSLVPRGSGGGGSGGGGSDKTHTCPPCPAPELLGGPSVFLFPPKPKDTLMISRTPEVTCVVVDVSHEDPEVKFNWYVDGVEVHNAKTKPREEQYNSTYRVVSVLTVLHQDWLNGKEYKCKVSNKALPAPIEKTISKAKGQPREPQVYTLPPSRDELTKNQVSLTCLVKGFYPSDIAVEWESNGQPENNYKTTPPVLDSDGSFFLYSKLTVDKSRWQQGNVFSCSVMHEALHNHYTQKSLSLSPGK

B1: rFVIII (other)
chain: ATRRYYLGAVELSWDYMQSDLGELPVDARFPPRVPKSFPFNTSVVYKKTLFVEFTDHLFNIAKPRPPWMGLLGPTIQAEVYDTVVITLKNMASHPVSLHAVGVSYWKASEGAEYDDQTSQREKEDDKVFPGGSHTYVWQVLKENGPMASDPLCLTYSYLSHVDLVKDLNSGLIGALLVCREGSLAKEKTQTLHKFILLFAVFDEGKSWHSETKNSLMQDRDAASARAWPKMHTVNGYVNRSLPGLIGCHRKSVYWHVIGMGTTPEVHSIFLEGHTFLVRNHRQASLEISPITFLTAQTLLMDLGQFLLFCHISSHQHDGMEAYVKVDSCPEEPQLRMKNNEEAEDYDDDLTDSEMDVVRFDDDNSPSFIQIRSVAKKHPKTWVHYIAAEEEDWDYAPLVLAPDDRSYKSQYLNNGPQRIGRKYKKVRFMAYTDETFKTREAIQHESGILGPLLYGEVGDTLLIIFKNQASRPYNIYPHGITDVRPLYSRRLPKGVKHLKDFPILPGEIFKYKWTVTVEDGPTKSDPRCLTRYYSSFVNMERDLASGLIGPLLICYKESVDQRGNQIMSDKRNVILFSVFDENRSWYLTENIQRFLPNPAGVQLEDPEFQASNIMHSINGYVFDSLQLSVCLHEVAYWYILSIGAQTDFLSVFFSGYTFKHKMVYEDTLTLFPFSGETVFMSMENPGLWILGCHNSDFRNRGMTALLKVSSCDKNTGDYYEDSYEDISAYLLSKNNAIEPRSFSQNPPVLKRHQREITRTTLQSDQEEIDYDDTISVEMKKEDFDIYDEDENQSPRSFQKKTRHYFIAAVERLWDYGMSSSPHVLRNRAQSGSVPQFKKVVFQEFTDGSFTQPLYRGELNEHLGLLGPYIRAEVEDNIMVTFRNQASRPYSFYSSLISYEEDQRQGAEPRKNFVKPNETKTYFWKVQHHMAPTKDEFDCKAWAYFSDVDLEKDVHSGLIGPLLVCHTNTLNPAHGRQVTVQEFALFFTIFDETKSWYFTENMERNCRAPCNIQMEDPTFKENYRFHAINGYIMDTLPGLVMAQDQRIRWYLLSMGSNENIHSIHFSGHVFTVRKKEEYKMALYNLYPGVFETVEMLPSKAGIWRVECLIGEHLHAGMSTLFLVYSNKCQTPLGMASGHIRDFQITASGQYGQWAPKLARLHYSGSINAWSTKEPFSWIKVDLLAPMIIHGIKTQGARQKFSSLYISQFIIMYSLDGKKWQTYRGNSTGTLMVFFGNVDSSGIKHNIFNPPIIARYIRLHPTHYSIRSTLRMELMGCDLNSCSMPLGMESKAISDAQITASSYFTNMFATWSPSKARLHLQGRSNAWRPQVNNPKEWLQVDFQKTMKVTGVTTQGVKSLLTSMYVKEFLISSSQDGHQWTLFFQNGKVKVFQGNQDSFTPVVNSLDPPLLTRYLRIHPQSWVHQIALRMEVLGCEAQDLY
notes: also called wild type FVIII
Take B1: the binding result is on record as “no binding”.
